According to patent US20040005648A1, “PYK2 related products and methods” (Sugen, Inc., priority 1994, published 2004):

Target: Kv1.2-HA (delayed rectifier-type potassium channel Kv1.2 with HA tag) (UniProt P63142)
Assay: cell-based or functional assay

Substance: PYK2 (wild type, full length)
- inhibition of outward current in Xenopus oocytes, 8 min after the addition of 100 nM PMA: 95%
